For this test, the target named is bACE2_(Ra5538)-Fc (Rhinolophus affinis). Description: BLI.

In turn, “SARS-CoV-2-RBD-monomer (from UniProt P0DTC2) (domain or fragment)” returned a dissociation constant Kd of 705 nM.

The record behind these values is paper PMC11908486.
